In PMC11903955:

Target: T1, CDK8 (Arabidopsis thaliana, UniProt Q84TI6 1-470)
T1 sequence: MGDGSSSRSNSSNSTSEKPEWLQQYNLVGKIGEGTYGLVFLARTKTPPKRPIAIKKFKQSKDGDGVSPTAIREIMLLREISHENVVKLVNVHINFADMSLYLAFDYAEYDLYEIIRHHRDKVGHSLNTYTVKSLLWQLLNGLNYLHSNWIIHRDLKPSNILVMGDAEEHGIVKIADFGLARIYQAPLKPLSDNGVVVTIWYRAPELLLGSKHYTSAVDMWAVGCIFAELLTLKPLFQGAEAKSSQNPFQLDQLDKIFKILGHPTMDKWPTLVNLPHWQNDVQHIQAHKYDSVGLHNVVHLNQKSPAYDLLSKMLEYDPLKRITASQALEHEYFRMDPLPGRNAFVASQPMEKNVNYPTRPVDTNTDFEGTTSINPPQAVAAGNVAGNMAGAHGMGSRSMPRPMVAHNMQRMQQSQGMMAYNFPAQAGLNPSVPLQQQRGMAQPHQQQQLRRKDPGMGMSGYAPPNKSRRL
Assay: EMSA

B1: AT-rich probe (dsDNA)
DNA 1: TAACACATATTTTGATAAATTTATTACTAAAACTATTTT
DNA 2: AAAATAGTTTTAGTAATAAATTTATCAAAATATGTGTTA
- binding result: no binding
